Measured values from paper PMC12046560.

Biological target: Neorhodopsin (NeoR) rhodopsin module from Rhizoclosmatium globosum, residues 1-279 (Rhizoclosmatium globosum)
Assay: cryo-EM structure; single-particle cryo-EM of purified NeoR in LMNG/CHS, 50 mM Hepes pH 7.4, 100 mM NaCl, after two SEC steps (monodisperse, single oligomeric state); 4.80 Å map refined under C1; two AlphaFold2 monomers fitted into the map

“Neorhodopsin (NeoR) rhodopsin module from Rhizoclosmatium globosum, residues 1-279 (domain or fragment)” gave a stoichiometry N of 2.
